The text below walks through data of US20160032001A1 (APEXIGEN, published 2016).

Assay [1] deals with T1, RANKL expressed on the surface of 293 cells (UniProt O14788 1-317, limits assumed).
T1 construct: whole, on cells; also called RANKL-transfected 293 cells; cells expressing RANKL
T1 sequence (looked up): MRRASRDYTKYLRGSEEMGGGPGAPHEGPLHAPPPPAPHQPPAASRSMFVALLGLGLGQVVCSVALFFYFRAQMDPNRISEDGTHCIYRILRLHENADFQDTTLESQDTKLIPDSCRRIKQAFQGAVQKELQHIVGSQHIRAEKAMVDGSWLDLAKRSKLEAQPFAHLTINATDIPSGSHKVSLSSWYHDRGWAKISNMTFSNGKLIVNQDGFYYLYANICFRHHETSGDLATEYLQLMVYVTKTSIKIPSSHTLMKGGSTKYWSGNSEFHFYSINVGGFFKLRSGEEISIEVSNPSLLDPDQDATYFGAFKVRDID
In words: flow cytometry (MFI) on RANKL-transfected 293 cells.

The target in another assay is T2, human RANKL protein (human, UniProt O14788 140-317, limits assumed).
T2 sequence (looked up): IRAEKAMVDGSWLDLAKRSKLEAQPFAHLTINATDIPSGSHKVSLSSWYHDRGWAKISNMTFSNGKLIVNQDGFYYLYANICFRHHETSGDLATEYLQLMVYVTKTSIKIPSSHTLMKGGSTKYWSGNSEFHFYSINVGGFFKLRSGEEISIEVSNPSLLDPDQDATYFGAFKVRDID
In words: competition ELISA: RANKL (0.5 ug/ml) pre-incubated with the antibody, then binding to coated human RANK (8 ug/ml) detected; blocked partner RANK.

B1: clone 547 rabbit anti-RANKL antibody (antibody, V domains shown)
VH: QEQLKESGGGLVTPGGTLTLTCTASGFSLSSNGMSWVRQAPGKGLEWIGYIYSGSSPYYASWAKGRFTISKTSSTTVDLKMTSLTTEDTAKYFCARHVSGGGWYLDIWGPGTLVTVSL
VL: DMIQTPASVEVAVGGTVTINCQASQSIGSNLAWYQQKPGQRPKLLIYGASTLASGVSSRVKGSGSGTQFTFTISDVECTDAATYYCQQAYSISNVDNAFGGGTEVVVK
In the case of B1, in assay [1], it took 0.398 µg/mL to reach a half-maximal effect (EC50). Besides, the IC50 in the assay with human RANKL protein is 0.0812 µg/mL.

B2: clone 476 rabbit anti-RANKL antibody (antibody, V domains shown)
VH: QSLEESGGGLVQPEGSPTLTCTAYLIDFSRYGYMCWVRQAPGKGLEWIGCIHAGRSGRTYYANWAKGRFTISKTSSTTVTLQMTSLTAADTATYFCAKSGDSYVGYFALWGPGTLVTVSS
VL: DIVMTQTPASVEAAVGGTVTIKCQASENIYNYLSWYQQKPGQPPKLLIYEASKLASGVSSRFKGSGSGTEFTLTISDLECADAATYYCQSYYDVTSHSYDNPFGGGTEVVVS
In the case of B2, the EC50 in assay [1] stood at 0.0632 µg/mL. Besides, the half-inhibitory concentration (IC50) in the assay with human RANKL protein is 0.0301 µg/mL.

B3: clone 480 rabbit anti-RANKL antibody (antibody, V domains shown)
VH: QSLEESGGRLVTPGGSLTLTCTVSGFSLSNYEINWVRQAPGKGLEWIGYIDVGSGTWYASWAKGRFTISKTSTTVDLKITSPTTGDTATYFCSRSYNPMDLWGPGTLVTVSS
VL: DMTQTPASVEVAVGGTVTIKCQASQNIGSNLAWYQQKPGQRPKLLIYSASTLASGVPSRFKGSGSGTQFTLTISGVQCDDAATYYCQQGYSVGNVNNAFGGGTEVVVK
As for B3, the EC50 in assay [1] was determined as 0.172 µg/mL. The IC50 in the assay with human RANKL protein was determined as 0.0284 µg/mL.
